# Reference: PMC9482650, “Quantitative fragmentomics allow affinity mapping of interactomes” (Nature Communications, 2022)
# Experiments:
# [1] = test system: HEK293T cells; test: Label-free MS proteome of stable cell lines expressing HPV16 E6 or E6ΔPBM; assay type: cell-based, human; conditions: protein level; for Difference log2 E6/Ctrl / Ratio E6/Ctrl: E6 cell line vs control; for Difference log2 dPBM/E6 / Ratio dPBM/E6: dPBM cell line vs E6 cell line; for Difference log2 dPBM/Ctrl / Ratio dPBM/Ctrl: dPBM cell line vs control
# Protocol: HEK293T and HeLa cells were authenticated and found 100% identity to ATCC cat. CRL-3216 and ATCC cat. CCL-2, respectively. Jurkat and HaCat cell lines were not authenticated (original source: ECACC and Deutsches Krebsforschungszentrum DKFZ, respectively). HeLa cells were grown in DMEM (1 g/L glucose, Gibco) medium completed with 5% FCS and 40 μg/mL gentamicin, diluted every 3rd/4th day 1/10. HaCat cells were grown in DMEM (1 g/L glucose, Gibco) medium completed with 10% FCS and 40 μg/mL gentamicin, diluted every 3rd/4th day 1/4. Jurkat cells were grown in RPMI (Gibco) medium completed with 10% FCS and 40 μg/mL gentamicin, diluted every 3rd/4th day 1/12. All cells were kept at 37 °C and 5% CO2. For proteomics analyses cells were seeded on T-175 flasks. After they reached confluency, adherent cells were washed with PBS once and collected by scraping with ice-cold lysis buffer (Hepes-KOH pH 7.5 50 mM, NaCl 150 mM, Triton X-100 1%, complete EDTA-free protease inhibitor cocktail 1×, EDTA 2 mM, TCEP 5 mM, glycerol 10%). Jurkat cells were collected by 1000 g × centrifugation, washed once with PBS, then collected by 1000 g × 5 min centrifugation again and lysed in ice-cold lysis buffer. Lysates were sonicated 4 × 20 s with 1 s long pulses on ice, then incubated rotating at 4 °C for 30 min. Lysates were centrifuged at 12,000 rpm 4 °C for 20 min and supernatant was kept for further analysis. Concentration determination was carried out by standard Bradford method (Bio-Rad Protein Assay Dye Reagent #5000006) using BSA (MP BIomedicals #160069) as control on a Bio-Rad SmartSpec 3000 spectrophotometer instrument.
# The samples were precipitated with TCA 20% overnight at 4 °C and centrifuged at 14,000 rpm for 10 min at 4 °C. The protein pellets were washed twice with 1 mL cold acetone and air dried. The protein extracts were solubilized in urea 8 M, reduced with 5 mM TCEP for 30 min, and alkylated with 10 mM iodoacetamide for 30 min in the dark. Double digestion was performed at 37 °C with 500 ng endoproteinase Lys-C for 4 h, followed by fourfold dilution and an overnight digestion with 500 ng trypsin. Peptide mixtures were then desalted on C18 spin-column and dried on Speed-Vacuum.
# Samples were analyzed using an Ultimate 3000 nano-RSLC (Thermo Scientific, San Jose California) coupled in line with a LTQ-Orbitrap ELITE mass spectrometer via a nano-electrospray ionization source (Thermo Scientific, San Jose California). Peptide mixtures were injected in 0.1% TFA on a C18 Acclaim PepMap100 trap-column (75 µm ID × 2 cm, 3 µm, 100 Å, Thermo Fisher Scientific) for 3 min at 5 µL/min with 2% ACN, 0.1% FA in H2O and then separated on a C18 Accucore nano-column (75 µm ID × 50 cm, 2.6 µm, 150 Å, Thermo Fisher Scientific) at 220 nl/min and 38 °C with a 90 min linear gradient from 5% to 30% buffer B (A: 0.1% FA in H2O/B: 99% ACN, 0.1% FA in H2O), regeneration at 5% B. The mass spectrometer was operated in positive ionization mode, in data-dependent mode with survey scans from m/z 350–1500 acquired in the Orbitrap at a resolution of 120,000 at m/z 400. The 20 most intense peaks from survey scans were selected for further fragmentation in the Linear Ion Trap with an isolation window of 2.0 Da and were fragmented by CID with normalized collision energy of 35%. (TOP20CID method) Unassigned and single charged states were excluded from fragmentation. The Ion Target Value for the survey scans (in the Orbitrap) and the MS2 mode (in the Linear Ion Trap) were set to 1E6 and 5E3 respectively and the maximum injection time was set to 100 ms for both scan modes. Dynamic exclusion was set to 20 s after one repeat count with mass width at ±10 ppm.
# Proteins were identified by database searching using SequestHT (Thermo Fisher Scientific) with Proteome Discoverer 2.4 software (PD2.4, Thermo Fisher Scientific) on human FASTA database downloaded from SwissProt (reviewed, release 2020_11_27, 20304 entries, https://www.uniprot.org/). […]
# [2] = test system: Jurkat cell extract preys; test: PDZ-AP-MS, biotinylated MBP-PDZ baits; assay type: binding, human; conditions: for Difference log2: enrichment of prey
# Procedure, shortened: (§1)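 Biotinylated His6-AviTag-MBP-PDZ baits, or MBP alone, saturated streptavidin resin and were then biotin-blocked. Each was incubated with 1 mg cell lysate for 2 h at 4 °C, washed, and eluted in 8 M urea. Eluates were digested with Lys-C/trypsin, run by nanoLC-MS/MS on an Orbitrap Elite (top20 CID) and searched against human SwissProt.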
# [3] = test system: HaCat cell extract preys; test: PDZ-AP-MS, biotinylated MBP-PDZ baits; assay type: binding, human
# Procedure, shortened: as §1
# [4] = test system: HeLa cell extract preys; test: PDZ-AP-MS, biotinylated MBP-PDZ baits; assay type: binding, human; conditions: PDZ-AP-MS fold change of the PBM-protein prey
# Procedure, shortened: as §1
# [5] = bait SCRIB_1 PDZ, fold change of prey
# [6] = PDZ-AP-MS fold change of the PBM-protein prey, bait MBP-PDZ DLG1_1
# [7] = PDZ-AP-MS fold change of the PBM-protein prey, bait MBP-PDZ DLG1_2
# [8] = PDZ-AP-MS fold change of the PBM-protein prey, bait MBP-PDZ SCRIB_1
# [9] = PDZ-AP-MS fold change of the PBM-protein prey, bait MBP-PDZ SCRIB_2
# [10] = PDZ-AP-MS fold change of the PBM-protein prey, bait MBP-PDZ SNX27
# [11] = PDZ-AP-MS fold change of the PBM-protein prey, bait MBP-PDZ TX1BP3
molecule,measurement,setting,value
"UBA6 (protein, UniProt A0AVT1 1-1052, looked up) Ubiquitin-like …: MEGSEPVAAHQGEEASCSSWGTGSTNKNLPIMSTASVEIDDALYSRQRYVLGDTAMQKMAKSHVFLSGMGGLGLEIAKNLVLAGIKAVTIHDTEKCQAWDLGTNFFLSEDDVVNKRNRAEAVLKHIAELNPYVHVTSSSVPFNETTDLSFLDKYQCVVLTEMKLPLQKKINDFCRSQCPPIKFISADVHGIWSRLFCDFGDEFEVLDTTGEEPKEIFISNITQANPGIVTCLENHPHKLETGQFLTFREINGMTGLNGSIQQITVISPFSFSIGDTTELEPYLHGGIAVQVKTPKTVFFESLERQLKHPKCLIVDFSNPEAPLEIHTAMLALDQFQEKYSRKPNVGCQQDSEELLKLATSISETLEEKPDVNADIVHWLSWTAQGFLSPLAAAVGGVASQEVLKAVTGKFSPLCQWLYLEAADIVESLGKPECEEFLPRGDRYDALRACIGDTLCQKLQNLNIFLVGCGAIGCEMLKNFALLGVGTSKEKGMITVTDPDLIEKSNLNRQFLFRPHHIQKPKSYTAADATLKINSQIKIDAHLNKVCPTTETIYNDEFYTKQDVIITALDNVEARRYVDSRCLANLRPLLDSGTMGTKGHTEVIVPHLTESYNSHRDPPEEEIPFCTLKSFPAAIEHTIQWARDKFESSFSHKPSLFNKFWQTYSSAEEVLQKIQSGHSLEGCFQVIKLLSRRPRNWSQCVELARLKFEKYFNHKALQLLHCFPLDIRLKDGSLFWQSPKRPPSPIKFDLNEPLHLSFLQNAAKLYATVYCIPFAEEDLSADALLNILSEVKIQEFKPSNKVVQTDETARKPDHVPISSEDERNAIFQLEKAILSNEATKSDLQMAVLSFEKDDDHNGHIDFITAASNLRAKMYSIEPADRFKTKRIAGKIIPAIATTTATVSGLVALEMIKVTGGYPFEAYKNCFLNLAIPIVVFTETTEVRKTKIRNGISFTIWDRWTVHGKEDFTLLDFINAVKEKYGIEPTMVVQGVKMLYVPVMPGHAKRLKLTMHKLVKPTTEKKYVDLTVSFAPDIDGDEDLPGPPVRYYFSHDTD",Difference log2 E6/Ctrl,[1],-0.8956
same,Ratio E6/Ctrl,[1],0.5375
same,Difference log2 dPBM/E6,[1],0.6111
same,Ratio dPBM/E6,[1],1.527
same,Difference log2 dPBM/Ctrl,[1],-0.2845
same,Ratio dPBM/Ctrl,[1],0.821
"ARHGEF6 (protein, UniProt Q15052 1-776, looked up) Rho guanine nucleotide …: MNPEEQIVTWLISLGVLESPKKTICDPEEFLKSSLKNGVVLCKLINRLMPGSVEKFCLDPQTEADCINNINDFLKGCATLQVEIFDPDDLYSGVNFSKVLSTLLAVNKATEDQLSERPCGRSSSLSAANTSQTNPQGAVSSTVSGLQRQSKTVEMTENGSHQLIVKARFNFKQTNEDELSVCKGDIIYVTRVEEGGWWEGTLNGRTGWFPSNYVREIKSSERPLSPKAVKGFETAPLTKNYYTVVLQNILDTEKEYAKELQSLLVTYLRPLQSNNNLSTVEVTSLLGNFEEVCTFQQTLCQALEECSKFPENQHKVGGCLLSLMPHFKSMYLAYCANHPSAVNVLTQHSDELEQFMENQGASSPGILILTTNLSKPFMRLEKYVTLLQELERHMEDTHPDHQDILKAIVAFKTLMGQCQDLRKRKQLELQILSEPIQAWEGEDIKNLGNVIFMSQVMVQYGACEEKEERYLMLFSNVLIMLSASPRMSGFIYQGKIPIAGTVVTRLDEIEGNDCTFEITGNTVERIVVHCNNNQDFQEWLEQLNRLIRGPASCSSLSKTSSSSCSAHSSFSSTGQPRGPLEPPQIIKPWSLSCLRPAPPLRPSAALGYKERMSYILKESSKSPKTMKKFLHKRKTERKPSEEEYVIRKSTAALEEDAQILKVIEAYCTSANFQQGHGSSTRKDSIPQVLLPEEEKLIIEETRSNGQTIMEEKSLVDTVYALKDEVRELKQENKRMKQCLEEELKSRRDLEKLVRRLLKQTDECIRGESSSKTSILP",Difference log2,[2]; bait SCRIB_1 PDZ vs MBP,4.28
same,Ratio SCRIB_1/MBP,[2]; [5],19.4266
same,Difference log2,[2]; bait TX1BP3 PDZ vs MBP,7.045
same,Ratio TX1BP3 / MBP,"[2]; bait TX1BP3 PDZ, fold change of prey",132.089
same,Difference log2,"[3]; bait SCRIB_1 PDZ vs MBP, enrichment of prey",5.7166
same,Ratio SCRIB_1/MBP,[3]; [5],52.5856
"ZW10 (protein, UniProt O43264 2-779, looked up) Centromere/kinetochore …: ASFVTEVLAHSGRLEKEDLGTRISRLTRRVEEIKGEVCNMISKKYSEFLPSMQSAQGLITQVDKLSEDIDLLKSRIESEVRRDLHVSTGEFTDLKQQLERDSVVLSLLKQLQEFSTAIEEYNCALTEKKYVTGAQRLEEAQKCLKLLKSRKCFDLKILKSLSMELTIQKQNILYHLGEEWQKLIVWKFPPSKDTSSLESYLQTELHLYTEQSHKEEKTPMPPISSVLLAFSVLGELHSKLKSFGQMLLKYILRPLASCPSLHAVIESQPNIVIIRFESIMTNLEYPSPSEVFTKIRLVLEVLQKQLLDLPLDTDLENEKTSTVPLAEMLGDMIWEDLSECLIKNCLVYSIPTNSSKLQQYEEIIQSTEEFENALKEMRFLKGDTTDLLKYARNINSHFANKKCQDVIVAARNLMTSEIHNTVKIIPDSKINVPELPTPDEDNKLEVQKVSNTQYHEVMNLEPENTLDQHSFSLPTCRISESVKKLMELAYQTLLEATTSSDQCAVQLFYSVRNIFHLFHDVVPTYHKENLQKLPQLAAIHHNNCMYIAHHLLTLGHQFRLRLAPILCDGTATFVDLVPGFRRLGTECFLAQMRAQKGELLERLSSARNFSNMDDEENYSAASKAVRQVLHQLKRLGIVWQDVLPVNIYCKAMGTLLNTAISEVIGKITALEDISTEDGDRLYSLCKTVMDEGPQVFAPLSEESKNKKYQEEVPVYVPKWMPFKELMMMLQASLQEIGDRWADGKGPLAAAFSSSEVKALIRALFQNTERRAAALAKIK",Difference log2 E6/Ctrl,[1],1.251
same,Ratio E6/Ctrl,[1],2.38
same,Difference log2 dPBM/E6,[1],-3.211
same,Ratio dPBM/E6,[1],0.108
same,Difference log2 dPBM/Ctrl,[1],-1.96
same,Ratio dPBM/Ctrl,[1],0.2569
"SRSF3 (protein, UniProt P84103 1-164, looked up) Serine/arginine-rich splicing …: MHRDSCPLDCKVYVGNLGNNGNKTELERAFGYYGPLRSVWVARNPPGFAFVEFEDPRDAADAVRELDGRTLCGCRVRVELSNGEKRSRNRGPPPSWGRRPRDDYRRRSPPPRRRSPRRRSFSRSRSRSLSRDRRRERSLSRERNHKPSRSFSRSRSRSRSNERK","Fold changes, HeLa, DLG1_1",[4]; bait MBP-PDZ DLG1_1,8.89
same,"Fold changes, HeLa, DLG1_2",[4]; bait MBP-PDZ DLG1_2,0.7503
same,"Fold changes, HeLa, SCRIB_1",[4]; bait MBP-PDZ SCRIB_1,8.2529
same,"Fold changes, HeLa, SCRIB_2",[4]; bait MBP-PDZ SCRIB_2,6.813
same,"Fold changes, HeLa, SNX27",[4]; bait MBP-PDZ SNX27,0.891
same,"Fold changes, HeLa, TX1BP3",[4]; bait MBP-PDZ TX1BP3,0.5408
same,"Fold changes, Jurkat, DLG1_1",[2]; [6],0.942
same,"Fold changes, Jurkat, DLG1_2",[2]; [7],1.581
same,"Fold changes, Jurkat, SCRIB_1",[2]; [8],0.6991
same,"Fold changes, Jurkat, SCRIB_2",[2]; [9],0.9858
same,"Fold changes, Jurkat, SNX27",[2]; [10],1.323
same,"Fold changes, Jurkat, TX1BP3",[2]; [11],0.7942
same,"Fold changes, HaCat, DLG1_1",[3]; [6],0.6471
same,"Fold changes, HaCat, DLG1_2",[3]; [7],0.7027
same,"Fold changes, HaCat, SCRIB_1",[3]; [8],0.4366
same,"Fold changes, HaCat, SCRIB_2",[3]; [9],0.378
same,"Fold changes, HaCat, SNX27",[3]; [10],0.5499
same,"Fold changes, HaCat, TX1BP3",[3]; [11],0.6457
